Results reported in article PMC11790920 (Nature Communications, 2025).

Target: T1, eukaryotic translation elongation factor 1A (eEF1A), native, full length (S. cerevisiae, UniProt P02994 1-458)
T1 sequence (looked up): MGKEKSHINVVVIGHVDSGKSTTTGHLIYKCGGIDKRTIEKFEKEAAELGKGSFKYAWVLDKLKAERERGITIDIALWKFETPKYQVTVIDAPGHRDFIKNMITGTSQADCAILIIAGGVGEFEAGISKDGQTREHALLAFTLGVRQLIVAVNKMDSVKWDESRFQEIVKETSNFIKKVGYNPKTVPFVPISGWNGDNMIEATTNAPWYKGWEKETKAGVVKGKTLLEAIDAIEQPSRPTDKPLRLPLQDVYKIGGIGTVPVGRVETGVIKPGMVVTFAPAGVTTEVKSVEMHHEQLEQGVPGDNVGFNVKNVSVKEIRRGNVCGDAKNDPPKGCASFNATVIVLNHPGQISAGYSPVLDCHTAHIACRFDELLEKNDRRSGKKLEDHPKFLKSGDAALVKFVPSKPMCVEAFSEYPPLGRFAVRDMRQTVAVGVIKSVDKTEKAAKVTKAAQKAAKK
Experiment: pull-down

- binding result: binds
B1: recombinant Ypl225w-3xFLAG (natural protein, S. cerevisiae, UniProt Q08971 1-146, looked up)
chain: MSTFNAETADNLEDIEKQFAVVAVEQAETYWKLLTSVPGSKLRLTKFDDEIYENFMERFPEYKDVERVKKFTEEELKTKEAKERWRKFFTIFEKKIEDYNFGTLLRTDASAEYGQFTTCFVVRLQFYAFEIARNKHGLNDWIVGQK
